Measured values: US20220220200A1 (published 2022)
Values belong to the binder of their own block, whether it stands above or below them.

Key:
FMC63 = assay: BLI
[1] = biological target: T1, CD19 antigen (analyte of the Octet affinity assay) (UniProt P15391 20-291); assay: BLI
T1 chain: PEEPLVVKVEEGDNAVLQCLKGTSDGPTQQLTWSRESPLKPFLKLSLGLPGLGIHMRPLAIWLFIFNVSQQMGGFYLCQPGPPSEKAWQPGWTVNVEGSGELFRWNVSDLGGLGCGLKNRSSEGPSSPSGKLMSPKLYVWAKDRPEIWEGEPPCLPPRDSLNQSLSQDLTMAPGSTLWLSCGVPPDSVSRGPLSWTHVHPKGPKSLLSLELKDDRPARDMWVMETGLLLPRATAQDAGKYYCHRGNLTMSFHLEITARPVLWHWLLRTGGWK

B1: CD19 antigen (receptor)
chain: T1 chain
Kd (FMC63): 10.7 nM

Kd [1]: 51.1 nM
B2: #62 anti-CD19 scFv-rFc (Fc fusion)
scFv: QSVVTQPPSVSGAPGQRVTISCTGSSSNIGAGYDVHWYQQLPGTAPKLLIYENTNRPSGVPDRFSGSKSGTSASLAITGLQAEDEADYYCQSYDSSLSGWRVFGGGTKLTVLGSRGGGGSGGGGSGGGGSLEMAEVQLVQSGAEVKKPGESLKISCKGSGYSFTNSWIGWVRQMPGKGLEWMGLIYPDDSDTRYSPSFQGQVTISADSAINTAYLQWSSLKASDTAMYYCARQSTYIYGGYYDTWGQGTLVTVSS

Kd [1]: 21.9 nM
B3: #78 anti-CD19 scFv-rFc (Fc fusion)
scFv: QAVLTQPPSVSEAPRQRVTISCSGSSSNIGNNAVSWYQQLPGKAPKLLIYYDDLLPSGVSDRFSGSKSGTSASLAISGLQSEDEADYYCAAWDDSLNGWVFGGGTKVTVLGSRGGGGSGGGGSGGGGSLEEVQLVQSGAEVKKPGESLKISCKGSGYSFTSYWIGWVRQMPGKGLEWMGIIYPGDSDTRYSPSFQGQVTISADKSISTAYLQWSSLKASDTAMYYCARLSYSWSSWYWDFWGQGTLVTVSS
